{
  "source": "patent US20220348939",
  "test_system": "Type I-F Csy (Cascade) complex with Cas2-3 (cas1, cas3, csy1-csy4), endogenous (Zymomonas mobilis ZM4)",
  "experiment": "cell_activity",
  "data": [
    {"sequence": "AUCUUGACUCCCUCCAUGCACUUAAAAAAUCU / ATCTTGACTCCCTCCATGCACTTAAAAAATCT / AGATTTTTTAAGTGCATGGAGGGAGTCAAGAT [ZMO0038 His-tag crRNA spacer ; ZMO0038 start codon target]", "values": [
      {"measurement": "activity", "setting": "PAM 5'-TCC-3', His-tag insertion efficiency", "result": 100, "unit": "%"}
    ]},
    {"sequence": "AUGCCGCUUUCGAUCAGGCCGCCGCCAAGAUU / ATGCCGCTTTCGATCAGGCCGCCGCCAAGATT / AATCTTGGCGGCGGCCTGATCGAAAGCGGCAT [ZMO0038 knockout crRNA spacer ; ZMO0038 target]", "values": [
      {"measurement": "activity", "setting": "PAM 5'-CCC-3', knockout efficiency", "result": 100, "unit": "%"}
    ]}
  ]
}
